Experiments:
FUS-SNAP, P35637 [1] = target: T1, FUS-SNAP, P35637; test: dynamic light scattering; conditions: remark: other sources report otherwise
T1 chain: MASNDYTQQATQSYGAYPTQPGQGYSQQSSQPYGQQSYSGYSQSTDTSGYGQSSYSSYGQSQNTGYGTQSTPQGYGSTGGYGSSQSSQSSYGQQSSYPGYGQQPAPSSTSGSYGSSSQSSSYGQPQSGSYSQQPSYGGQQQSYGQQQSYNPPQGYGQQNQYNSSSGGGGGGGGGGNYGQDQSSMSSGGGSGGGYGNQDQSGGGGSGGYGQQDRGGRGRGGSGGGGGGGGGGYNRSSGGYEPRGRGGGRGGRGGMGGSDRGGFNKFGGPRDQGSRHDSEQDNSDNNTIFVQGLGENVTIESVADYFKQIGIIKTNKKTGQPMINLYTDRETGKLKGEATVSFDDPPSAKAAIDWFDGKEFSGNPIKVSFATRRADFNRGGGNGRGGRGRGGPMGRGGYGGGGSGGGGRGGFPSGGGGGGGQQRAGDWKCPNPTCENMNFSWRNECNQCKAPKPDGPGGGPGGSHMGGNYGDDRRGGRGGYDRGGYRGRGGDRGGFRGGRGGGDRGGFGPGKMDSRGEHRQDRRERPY

FUS-SNAP, P35637 [2] = target: T1, FUS-SNAP, P35637; test: nanoparticle tracking analysis; conditions: remark: other sources report otherwise

B1: FUS-SNAP, P35637 1-526 (natural protein)
chain: T1 chain
stoichiometry N (molecules per cluster) (FUS-SNAP, P35637 [1]): < 10
percent of the protein molecules in mesoscale clusters (250 nM FUS-SNAP) (FUS-SNAP, P35637 [2]): 0.15%

Reference: publication PMC9282234
